Assay results taken from patent publication US20220177587A1, “METHODS AND USES OF VARIANT CD80 FUSION PROTEINS AND RELATED CONSTRUCTS” (Alpine Immune Sciences, Inc., priority 2018, published 2022).

How the values were obtained:
[1] = biological target: human PD-L1 (human) (UniProt Q9NZQ7); experiment: flow cytometry, CHO cells expressing PD-L1
[2] = biological target: human CTLA-4 (human) (UniProt P16410); experiment: flow cytometry, CHO cells expressing CTLA4
[3] = biological target: human PD-L1 (human) (UniProt Q9NZQ7); experiment: flow cytometry, MFI on PD-L1 over MFI on CD28
[4] = biological target: CD28 (human) (UniProt P10747); experiment: flow cytometry, Jurkat cells (CD28)
[5] = biological target: CD28 (human) (UniProt P10747)
[6] = biological target: human PD-L1 (human) (UniProt Q9NZQ7)
[7] = biological target: human PD-L1 (human) (UniProt Q9NZQ7); experiment: flow cytometry, MFI on CHO/PD-L1 over MFI on Jurkat (CD28)
[8] = biological target: human PD-L1 (human) (UniProt Q9NZQ7); experiment: flow cytometry, CHO cells stably expressing PD-L1
[9] = biological target: human CTLA-4 (human) (UniProt P16410); experiment: flow cytometry, CHO cells stably expressing CTLA4

human PD-L1 (human), sequence (Q9NZQ7 19-290): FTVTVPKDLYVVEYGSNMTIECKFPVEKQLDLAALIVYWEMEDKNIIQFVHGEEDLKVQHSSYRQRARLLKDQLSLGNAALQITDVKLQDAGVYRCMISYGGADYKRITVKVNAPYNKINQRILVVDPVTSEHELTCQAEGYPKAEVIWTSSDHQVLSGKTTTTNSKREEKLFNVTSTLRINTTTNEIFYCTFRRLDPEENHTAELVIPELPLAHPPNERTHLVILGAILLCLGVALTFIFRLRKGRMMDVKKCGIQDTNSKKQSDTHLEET
human CTLA-4 (human), sequence (P16410 36-223): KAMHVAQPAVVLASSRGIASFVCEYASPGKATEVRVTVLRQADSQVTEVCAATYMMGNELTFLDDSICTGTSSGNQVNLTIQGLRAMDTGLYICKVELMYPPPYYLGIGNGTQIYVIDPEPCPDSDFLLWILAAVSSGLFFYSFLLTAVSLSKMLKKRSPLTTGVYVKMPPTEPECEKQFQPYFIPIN

Row | Fold change to WT CD80 [1] [fold] | MFI at 33.3 nM [1] [MFI] | Fold change to WT CD80 [2] [fold] | MFI at 33.3 nM [2] [MFI] | Ratio of PDL1:CD28 [3] | Fold change to WT CD80 [4] [fold] | MFI at 33.3 nM [4] [MFI] | IL2-luciferase reporter (RLU), fold increase over WT CD80-IgV-Fc at 5.0 nM [5] [fold] | IL2-luciferase reporter (RLU), fold increase over WT CD80-IgV-Fc at 5.0 nM [6] [fold] | Ratio of PDL1:CD28 [7] | Fold change to WT [8] [fold] | MFI at 33.3 nM [8] [MFI] | Fold change to WT CD80 [9] [fold] | MFI at 33.3 nM [9] [MFI] | Fold change to WT [4] [fold] | Binder
1 | 148 | 7620 | 8.9 | 15600 | 31.1 | 7.8 | 245 |  |  |  |  |  |  |  |  | CD80 E35D/M47V/N48K/V68M/L85M IgV-Fc (Fc fusion) VIHVTKEVKEVATLSCGHNVSVEELAQTRIYWQKDKKMVLTMMSGDVKIWPEYKNRTIFDITNNLSIMILALRPSDEGTYECVVMKYEKDAFKREHLAEVTLSVKAD
2 | 372 | 19200 | 11.8 | 20700 | 17.2 | 35.4 | 1110 |  |  |  |  |  |  |  |  | CD80 T13R/Q33R/E35D/M38I/M47L/V68M/E95V/L97Q IgV-Fc (Fc fusion) VIHVTKEVKEVARLSCGHNVSVEELAQTRIYWRKDKKIVLTMMSGDLNIWPEYKNRTIFDITNNLSIMILALRPSDEGTYECVVLKYEKDAFKRVHQAEVTLSVKAD
3 |  |  |  |  |  |  |  | 2.3 | 2.3 |  |  |  |  |  |  | CD80 E35D/L97R IgV-Fc (Fc fusion) VIHVTKEVKEVATLSCGHNVSVEELAQTRIYWQKDKKMVLTMMSGDMNIWPEYKNRTIFDITNNLSIVILALRPSDEGTYECVVLKYEKDAFKREHRAEVTLSVKAD
4 | 285 | 14700 | 11.8 | 20700 | 1040 | 0.4 | 14.1 |  |  |  |  |  |  |  |  | CD80 T13R/Q33R/E35D/M47L/V68M IgV-Fc (Fc fusion) VIHVTKEVKEVARLSCGHNVSVEELAQTRIYWRKDKKMVLTMMSGDLNIWPEYKNRTIFDITNNLSIMILALRPSDEGTYECVVLKYEKDAFKREHLAEVTLSVKAD
5 |  |  |  |  |  |  |  | 4.8 | 4.8 |  |  |  |  |  |  | CD80 E35D/D46E/M47I IgV-Fc (Fc fusion) VIHVTKEVKEVATLSCGHNVSVEELAQTRIYWQKDKKMVLTMMSGEINIWPEYKNRTIFDITNNLSIVILALRPSDEGTYECVVLKYEKDAFKREHLAEVTLSVKAD
6 |  |  |  |  |  |  | 15 |  |  | 863 | 158 | 13200 | 0.2 | 214 | 0.4 | CD80 IgV-Fc E35D/D46E/M47L/V68M/L85Q/F92L (Fc fusion) VIHVTKEVKEVATLSCGHNVSVEELAQTRIYWQKDKKMVLTMMSGELNIWPEYKNRTIFDITNNLSIMILALRPSDEGTYECVVQKYEKDALKREHLAEVTLSVKAD
7 | 287 | 14800 | 10.5 | 18400 | 31.1 | 15.2 | 476 |  |  |  |  |  |  |  |  | CD80 E35D/T41S/D46E/M47I/V68M/K93R/E95V IgV-Fc (Fc fusion) VIHVTKEVKEVATLSCGHNVSVEELAQTRIYWQKDKKMVLSMMSGEINIWPEYKNRTIFDITNNLSIMILALRPSDEGTYECVVLKYEKDAFRRVHLAEVTLSVKAD
8 |  |  |  |  |  |  |  | 3.4 | 3.4 |  |  |  |  |  |  | CD80 E35D/M47V IgV-Fc (Fc fusion) VIHVTKEVKEVATLSCGHNVSVEELAQTRIYWQKDKKMVLTMMSGDVNIWPEYKNRTIFDITNNLSIVILALRPSDEGTYECVVLKYEKDAFKREHLAEVTLSVKAD
9 | 326 | 16800 | 10.5 | 18400 | 45 | 11.9 | 373 |  |  |  |  |  |  |  |  | CD80 H18Y/E35D/M47V/V68M/L85M IgV-Fc (Fc fusion) VIHVTKEVKEVATLSCGYNVSVEELAQTRIYWQKDKKMVLTMMSGDVNIWPEYKNRTIFDITNNLSIMILALRPSDEGTYECVVMKYEKDAFKREHLAEVTLSVKAD
